In publication PMC12043515, “Stepwise neofunctionalization of the NF-κB family member Rel during vertebrate evolution”:

Tests used:
Rel RHR homodimer [1] = target: T1, Rel RHR homodimer (UniProt P15307 8-297); assay: SPR; most stable of Il12b motifs; EMSA: 10 mM Tris-HCl pH 7.5, 150 mM NaCl, 1 mM DTT, 1 mM EDTA, 5% glycerol, 80 ng/ul dI-dC, 200 ng/ul BSA, 4 C; off-rate with 100-fold unlabeled consensus. SPR: 10 mM HEPES pH 7.5, 150 mM NaCl, 3 mM EDTA, 0.005% Tween 20, 10 C; conditions: protein: recombinant; chain copies: 2; label: biotin
Rel RHR homodimer [2] = target: T1, Rel RHR homodimer; assay: SPR; slower off-rate than on …; EMSA: 10 mM Tris-HCl pH 7.5, 150 mM NaCl, 1 mM DTT, 1 mM EDTA, 5% glycerol, 80 ng/ul dI-dC, 200 ng/ul BSA, 4 C; off-rate with 100-fold unlabeled consensus. SPR: 10 mM HEPES pH 7.5, 150 mM NaCl, 3 mM EDTA, 0.005% Tween 20, 10 C; conditions: protein: recombinant; chain copies: 2; label: biotin
Rel RHR homodimer [3] = target: T1, Rel RHR homodimer; assay: EMSA; EMSA: 10 mM Tris-HCl pH 7.5, 150 mM NaCl, 1 mM DTT, 1 mM EDTA, 5% glycerol, 80 ng/ul dI-dC, 200 ng/ul BSA, 4 C; off-rate with 100-fold unlabeled consensus. SPR: 10 mM HEPES pH 7.5, 150 mM NaCl, 3 mM EDTA, 0.005% Tween 20, 10 C; conditions: protein: recombinant; chain copies: 2; label: 32P
Rel RHR homodimer [4] = target: T1, Rel RHR homodimer; assay: SPR; less stable than κB2 and κB1; EMSA: 10 mM Tris-HCl pH 7.5, 150 mM NaCl, 1 mM DTT, 1 mM EDTA, 5% glycerol, 80 ng/ul dI-dC, 200 ng/ul BSA, 4 C; off-rate with 100-fold unlabeled consensus. SPR: 10 mM HEPES pH 7.5, 150 mM NaCl, 3 mM EDTA, 0.005% Tween 20, 10 C; conditions: protein: recombinant; chain copies: 2; label: biotin
Rel RHR homodimer [5] = target: T1, Rel RHR homodimer; assay: SPR; less stable than κB2; EMSA: 10 mM Tris-HCl pH 7.5, 150 mM NaCl, 1 mM DTT, 1 mM EDTA, 5% glycerol, 80 ng/ul dI-dC, 200 ng/ul BSA, 4 C; off-rate with 100-fold unlabeled consensus. SPR: 10 mM HEPES pH 7.5, 150 mM NaCl, 3 mM EDTA, 0.005% Tween 20, 10 C; conditions: protein: recombinant; chain copies: 2; label: biotin
RelA RHR homodimer = RelA RHR homodimer (UniProt Q04207 19-306); assay: EMSA; only one dimer bound; EMSA: 10 mM Tris-HCl pH 7.5, 150 mM NaCl, 1 mM DTT, 1 mM EDTA, 5% glycerol, 80 ng/ul dI-dC, 200 ng/ul BSA, 4 C; off-rate with 100-fold unlabeled consensus. SPR: 10 mM HEPES pH 7.5, 150 mM NaCl, 3 mM EDTA, 0.005% Tween 20, 10 C; conditions: protein: recombinant; chain copies: 2; label: 32P
Rel RHR homodimer [6] = target: T1, Rel RHR homodimer; assay: EMSA; three dimers bound simultaneously; EMSA: 10 mM Tris-HCl pH 7.5, 150 mM NaCl, 1 mM DTT, 1 mM EDTA, 5% glycerol, 80 ng/ul dI-dC, 200 ng/ul BSA, 4 C; off-rate with 100-fold unlabeled consensus. SPR: 10 mM HEPES pH 7.5, 150 mM NaCl, 3 mM EDTA, 0.005% Tween 20, 10 C; conditions: protein: recombinant; chain copies: 2; label: 32P

T1 sequence (P15307 8-297): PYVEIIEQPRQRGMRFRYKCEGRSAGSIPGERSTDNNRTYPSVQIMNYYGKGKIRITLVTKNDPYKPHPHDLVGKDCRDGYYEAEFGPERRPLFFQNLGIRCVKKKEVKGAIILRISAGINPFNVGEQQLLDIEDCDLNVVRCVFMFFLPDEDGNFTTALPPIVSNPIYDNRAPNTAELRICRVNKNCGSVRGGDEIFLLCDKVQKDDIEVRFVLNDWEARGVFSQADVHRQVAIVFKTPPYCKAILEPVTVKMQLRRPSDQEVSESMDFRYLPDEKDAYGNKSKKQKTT
RelA RHR homodimer, sequence (Q04207 19-306): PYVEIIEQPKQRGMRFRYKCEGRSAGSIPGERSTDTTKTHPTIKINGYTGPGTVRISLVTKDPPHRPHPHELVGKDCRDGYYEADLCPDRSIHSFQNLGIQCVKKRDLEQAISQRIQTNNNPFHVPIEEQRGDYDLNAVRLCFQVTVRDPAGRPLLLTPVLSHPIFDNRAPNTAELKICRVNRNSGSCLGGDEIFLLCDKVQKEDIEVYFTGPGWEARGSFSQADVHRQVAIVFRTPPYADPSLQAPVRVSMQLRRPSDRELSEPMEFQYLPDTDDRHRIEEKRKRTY

B1: κB2 (SPR) (dsDNA)
DNA 1: CCTAACATCAAAAATTCCCCTGATGTTAGG
DNA 2: CCTAACATCAGGGGAATTTTTGATGTTAGG
B1: binds (Rel RHR homodimer [1]).

B2: SPR GGGGGTTTTT (dsDNA)
DNA 1: CCTAACATCAGGGGGTTTTTTGATGTTAGG
DNA 2: CCTAACATCAAAAAACCCCCTGATGTTAGG
B2: binds (Rel RHR homodimer [2]).

B3: κB2 EMSA probe (dsDNA)
DNA 1: CCTAACATCAAAAATTCCCCGATGTTAGG
DNA 2: CCTAACATCGGGGAATTTTTGATGTTAGG
B3: binds (Rel RHR homodimer [3]).

B4: κB3 (SPR) (dsDNA)
DNA 1: CCTAACATCAAGAATGTTTTTGATGTTAGG
DNA 2: CCTAACATCAAAAACATTCTTGATGTTAGG
B4: binds (Rel RHR homodimer [4]).

B5: κB1 (SPR) (dsDNA)
DNA 1: CCTAACATCAGGAACTTCTTTGATGTTAGG
DNA 2: CCTAACATCAAAGAAGTTCCTGATGTTAGG
B5: binds (Rel RHR homodimer [5]).

B6: κB1 EMSA probe (dsDNA)
DNA 1: CCTAACATCAGGAACTTCTTTGATGTTAGG
DNA 2: CCTAACATCAAAGAAGTTCCTGATGTTAGG
B6: binds (Rel RHR homodimer [3]).

B7: κB1+2+3 (dsDNA)
DNA 1: AGGAACTTCTTAAAATTCCCCCAGAATGTTTTGACA
DNA 2: TGTCAAAACATTCTGGGGGAATTTTAAGAAGTTCCT
B7: binds (RelA RHR homodimer); binds (Rel RHR homodimer [6]).

B8: κB3 EMSA probe (dsDNA)
DNA 1: CCTAACATCAAGAATGTTTTTGATGTTAGG
DNA 2: CCTAACATCAAAAACATTCTTGATGTTAGG
B8: binds (Rel RHR homodimer [3]).
